Changes are numbered by the printed parent chain. Names and notes keep the numbering of the source.

Test [1] concerns the target MBP-tagged Vif–CBFβ–EloB–EloC complex (wild type) (HIV-1 (pNL4–3) | human | , UniProt P12504;Q13951-2;Q15370;Q15369). The experiment in a line: pull-down.
Test [2] addresses MBP-tagged Vif–CBFβ–EloB–EloC complex with CBFβ E54K (HIV-1 (pNL4–3) | human | , UniProt P12504;Q13951-2;Q15370;Q15369, E54K). The experiment in a line: pull-down.
Test [3] deals with truncated Vif–CBFβ subcomplex (Vif176Δ114–157 with CBFβ151) (HIV-1 (pNL4–3) | human, UniProt P12504;Q13951). The experiment in a line: SEC.

B1: A3F_(CTDm) D260R/D261R (domain or fragment)
chain: KEILRNPMEAMDPHIFYFHFKNLRKAYGRNESWLCFTMEVVKHHSPVSWKRGVFRNQVDPETGRHAERCFLSWFCRRILSPNTNYEVTWYTSWSPCPECAGEVAEFLARHSNVNLTIKTARLYYFKDTDAAEGLRSLSQEGASVEIMGYKDFKYCWENFVYNDDEPFKPWDGLDYNFLDLDSKLQEILE
B1: the binding result in test [1] is recorded as “binds”.

B2: A3F_(CTDm) R293D (domain or fragment)
chain: B1 chain with R76D, R77D, R109D
B2: the binding result in test [2] was “binds”.

B3: A3F_(CTDm) P265A (domain or fragment)
chain: B1 chain with R76D, R77D, P81A
Take B3: in test [1], the binding result is given as “binds”.

B4: A3F_(CTDm) D347R (domain or fragment)
chain: B1 chain with R76D, R77D, D163R
In the case of B4, the binding result in test [3] and in test [1] was “binds” each time.

For the origin of these results see PMC6899190 (Nature structural & molecular biology, 2019).
